Experimental data from patent US20200024322A1 (Eli Lilly, published 2020).
Numbered stars: 1 amine (or outer) side, 2 acyl side, 3 side chain; on linkers, the order of the positions; unused ones are H or OH. Square brackets hold non-standard residues; d marks the D form. Side chains are listed from the residue outwards. Ends that are not written are not given here. * marks the point of attachment. C20 diacid = O=C(O)CCCCCCCCCCCCCCCCCCC(=O)*; C18 diacid = O=C(O)CCCCCCCCCCCCCCCCC(=O)*; γGlu = O=C(O)[C@H](CCC(=O)[*:2])N[*:1]; AEEA = NCCOCCOCC(=O)O; Aib = CC(C)(N)C(=O)O

T1: human GIP receptor (human, UniProt P48546 22-466)
T1 construct: whole, on cells; also called hGIPR; hGIP-R
T1 sequence (looked up): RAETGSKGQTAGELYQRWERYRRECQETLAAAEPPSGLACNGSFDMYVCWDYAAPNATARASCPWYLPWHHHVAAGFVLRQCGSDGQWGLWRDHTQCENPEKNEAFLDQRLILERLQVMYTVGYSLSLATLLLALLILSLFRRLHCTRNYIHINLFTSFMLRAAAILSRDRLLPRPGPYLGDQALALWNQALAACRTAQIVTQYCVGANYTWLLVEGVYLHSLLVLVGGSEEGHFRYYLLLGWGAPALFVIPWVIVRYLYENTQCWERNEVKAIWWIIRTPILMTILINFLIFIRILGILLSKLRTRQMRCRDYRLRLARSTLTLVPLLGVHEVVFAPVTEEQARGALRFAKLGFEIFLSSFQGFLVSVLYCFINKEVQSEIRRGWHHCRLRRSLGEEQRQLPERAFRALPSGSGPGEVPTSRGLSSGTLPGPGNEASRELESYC


Experiments:
[1] = target: T2, human GLP-1 receptor (human, UniProt P43220 24-463); assay: [125I]-GLP-1 competition SPA, hGLP-1R membranes
T2 construct: whole, on cells; also called hGLP-1R; hGLP1R
In short: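 Competition binding in 25 mM HEPES pH 7.4, 2.5 mM CaCl₂, 1 mM MgCl₂, 0.1% bacitracin, 0.003% TWEEN-20, EDTA-free protease inhibitors. IC₅₀ from four-parameter nonlinear fit; Kᵢ given as geometric mean ± SEM, n = independent replicates on different days.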

[2] = target: T3, human glucagon receptor (human, UniProt P47871 26-477); assay: [125I]-Gcg competition SPA, hGcgR membranes
T3 construct: whole, on cells; also called hGcgR; GcgR

[3] = target: T1, human GIP receptor; assay: [125I]-GIP competition SPA, hGIPR membranes

T3 sequence (P47871 26-477): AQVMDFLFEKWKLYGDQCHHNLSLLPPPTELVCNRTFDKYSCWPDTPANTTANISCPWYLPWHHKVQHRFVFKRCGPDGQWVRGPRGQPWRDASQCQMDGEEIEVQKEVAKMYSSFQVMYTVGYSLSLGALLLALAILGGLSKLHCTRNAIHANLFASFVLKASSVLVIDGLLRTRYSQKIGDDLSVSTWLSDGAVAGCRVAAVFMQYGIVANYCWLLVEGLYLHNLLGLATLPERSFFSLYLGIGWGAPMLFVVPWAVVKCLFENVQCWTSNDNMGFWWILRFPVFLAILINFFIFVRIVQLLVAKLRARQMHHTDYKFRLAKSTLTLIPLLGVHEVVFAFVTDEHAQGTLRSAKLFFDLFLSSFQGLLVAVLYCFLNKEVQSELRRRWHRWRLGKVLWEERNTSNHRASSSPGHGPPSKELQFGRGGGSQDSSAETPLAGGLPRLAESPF

Binder | Ki [1] | Ki [2] | Ki [3]
Y[Aib]EGTFTSDYSILLDKK([AEEA-AEEA-γGlu-C18 diacid])AQ[Aib]AFIEYLIAGG-NH2 (N-terminus assumed; SMILES CC[C@H](C)[C@H](NC(=O)[C@H](CC(C)C)NC(=O)[C@H](Cc1ccc(O)cc1)NC(=O)[C@H](CCC(=O)O)NC(=O)[C@@H](NC(=O)[C@H](Cc1ccccc1)NC(=O)[C@H](C)NC(=O)C(C)(C)NC(=O)[C@H](CCC(N)=O)NC(=O)[C@H](C)NC(=O)[C@H](CCCCNC(=O)COCCOCCNC(=O)COCCOCCNC(=O)CC[C@H](NC(=O)CCCCCCCCCCCCCCCCC(=O)O)C(=O)O)NC(=O)[C@H](CCCCN)NC(=O)[C@H](CC(=O)O)NC(=O)[C@H](CC(C)C)NC(=O)[C@H](CC(C)C)NC(=O)[C@@H](NC(=O)[C@H](CO)NC(=O)[C@H](Cc1ccc(O)cc1)NC(=O)[C@H](CC(=O)O)NC(=O)[C@H](CO)NC(=O)[C@@H](NC(=O)[C@H](Cc1ccccc1)NC(=O)[C@@H](NC(=O)CNC(=O)[C@H](CCC(=O)O)NC(=O)C(C)(C)NC(=O)[C@@H](N)Cc1ccc(O)cc1)[C@@H](C)O)[C@@H](C)O)[C@@H](C)CC)[C@@H](C)CC)C(=O)N[C@@H](C)C(=O)NCC(=O)NCC(N)=O) [Example 273] | 1.13 nM | 724 nM | 0.0698 nM
YXEGTFTSDYSIXLDKKAQXAFIEYLIEGGPSSG (Aib2; αMeL13; K17((2-[2-(2-Amino-ethoxy)-ethoxy]-acetyl)2-(γ-Glu)-CO-(CH2)16-CO2H); Aib20; C-terminal NH2) [Example 300] | 2.13 nM | 251 nM | 0.0504 nM
YXEGTFTSDYSIXLDKKAQXAFIEYLIAGGPSSGAPPPS (Aib2; αMeL13; K17((2-[2-(2-Amino-ethoxy)-ethoxy]-acetyl)2-(γ-Glu)-CO-(CH2)18-CO2H); Aib20; C-terminal NH2) [Example 324] | 0.609 nM | 449 nM | 0.0278 nM
XXEGTFTSDYSIXLDKKAQXAFIEYLIAGGPSSGAPPPS (D-Tyr1; Aib2; αMeL13; K17((2-[2-(2-Amino-ethoxy)-ethoxy]-acetyl)2-(γ-Glu)-CO-(CH2)18-CO2H); Aib20; C-terminal NH2) [Example 340] | 2.08 nM | 250 nM | 0.0507 nM
XXEGTFTSDYSIXLDXKAQXEFIEXLIAGGPSSGAPPPS (D-Tyr1; Aib2; αMeL13; Orn16; K17((2-[2-(2-Amino-ethoxy)-ethoxy]-acetyl)2-(γ-Glu)-CO-(CH2)18-CO2H); Aib20; αMeY25; C-terminal NH2) [Example 293] | 1.64 nM | 668 nM | 0.0775 nM
XXEGTFTSDYSIXLDKKAQXEFIEXLIAGGPSSGAPPPS (D-Tyr1; Aib2; αMeL13; K17((2-[2-(2-Amino-ethoxy)-ethoxy]-acetyl)2-(γ-Glu)-CO-(CH2)18-CO2H); Aib20; αMeY25; C-terminal NH2) [Example 292] | 1.19 nM | 595 nM | 0.0547 nM
YXEGTFTSDYSIXLDKKAQXEFIEYLIAGGPSSGAPPPS (Aib2; αMeL13; K17((2-[2-(2-Amino-ethoxy)-ethoxy]-acetyl)-(γ-Glu)-CO-(CH2)18-CO2H); Aib20; C-terminal NH2) [Example 339] | 2.69 nM | 873 nM | 0.0388 nM
FXEGTFTSDYSIXLDKKAQXAFIEYLIAGGPSSGAPPPS (Aib2; αMeL13; K17((2-[2-(2-Amino-ethoxy)-ethoxy]-acetyl)2-(γ-Glu)-CO-(CH2)18-CO2H); Aib20; C-terminal NH2) [Example 337] | 1.61 nM | 335 nM | 0.0363 nM
YXEGTFTSDYSIXLDEKAQXAFIEYLIEGGPSSGAPPPS (Aib2; αMeL13; K17((2-[2-(2-Amino-ethoxy)-ethoxy]-acetyl)2-(γ-Glu)-CO-(CH2)16-CO2H); Aib20; C-terminal NH2) [Example 323] | 1.65 nM | 300 nM | 0.0516 nM
FXEGTFTSDYSIXLDKKAQXAFIEYLIEGGPSSGAPPPS (Aib2; αMeL13; K17((2-[2-(2-Amino-ethoxy)-ethoxy]-acetyl)2-(γ-Glu)-CO-(CH2)18-CO2H); Aib20; C-terminal NH2) [Example 327] | 2.1 nM | 114 nM | 0.0667 nM
XXEGTFTSDYSIXLDKKAQXAFIEYLIEGGPSSGAPPPS (D-Tyr1; Aib2; αMeL13; K17((2-[2-(2-Amino-ethoxy)-ethoxy]-acetyl)2-(γ-Glu)-CO-(CH2)18-CO2H); Aib20; C-terminal NH2) [Example 334] | 2.17 nM | 192 nM | 0.0646 nM
YXEGTFTSDYSIXLDEKAQXAFIEYLIAGGPSSGAPPPS (Aib2; αMeL13; K17((2-[2-(2-Amino-ethoxy)-ethoxy]-acetyl)2-(γ-Glu)-CO-(CH2)18-CO2H); Aib20; C-terminal NH2) [Example 332] | 7.87 nM | 397 nM | 0.0497 nM
XXEGTFTSDYSIXLDKKAQXEFIEYLIAGGPSSGAPPPS (D-Tyr1; Aib2; αMeL13; K17((2-[2-(2-Amino-ethoxy)-ethoxy]-acetyl)2-(γ-Glu)-CO-(CH2)18-CO2H); Aib20; C-terminal NH2) [Example 290] | 2.44 nM | 308 nM | 0.0617 nM
XXEGTFTSDYSIXLDEKAQXAFIEYLIAGGPSSGAPPPS (D-Tyr1; Aib2; αMeL13; K17((2-[2-(2-Amino-ethoxy)-ethoxy]-acetyl)2-(γ-Glu)-CO-(CH2)18-CO2H); Aib20; C-terminal NH2) [Example 341] | 6.49 nM | 39.7 nM | 0.0559 nM
YXEGTFTSDYSIXLDKKAQXEFIEYLIEGGPSSGAPPPS (Aib2; αMeL13; K17((2-[2-(2-Amino-ethoxy)-ethoxy]-acetyl)2-(γ-Glu)-CO-(CH2)18-CO2H); Aib20; C-terminal NH2) [Example 333] | 4.25 nM | 578 nM | 0.0634 nM
Y[Aib]EGTFTSDYSILLDKK([AEEA-AEEA-γGlu-C20 diacid])AQ[Aib]AFIEYLIAGGPSSGAPPPS-NH2 (N-terminus assumed; SMILES CC[C@H](C)[C@H](NC(=O)[C@H](CC(C)C)NC(=O)[C@H](Cc1ccc(O)cc1)NC(=O)[C@H](CCC(=O)O)NC(=O)[C@@H](NC(=O)[C@H](Cc1ccccc1)NC(=O)[C@H](C)NC(=O)C(C)(C)NC(=O)[C@H](CCC(N)=O)NC(=O)[C@H](C)NC(=O)[C@H](CCCCNC(=O)COCCOCCNC(=O)COCCOCCNC(=O)CC[C@H](NC(=O)CCCCCCCCCCCCCCCCCCC(=O)O)C(=O)O)NC(=O)[C@H](CCCCN)NC(=O)[C@H](CC(=O)O)NC(=O)[C@H](CC(C)C)NC(=O)[C@H](CC(C)C)NC(=O)[C@@H](NC(=O)[C@H](CO)NC(=O)[C@H](Cc1ccc(O)cc1)NC(=O)[C@H](CC(=O)O)NC(=O)[C@H](CO)NC(=O)[C@@H](NC(=O)[C@H](Cc1ccccc1)NC(=O)[C@@H](NC(=O)CNC(=O)[C@H](CCC(=O)O)NC(=O)C(C)(C)NC(=O)[C@@H](N)Cc1ccc(O)cc1)[C@@H](C)O)[C@@H](C)O)[C@@H](C)CC)[C@@H](C)CC)C(=O)N[C@@H](C)C(=O)NCC(=O)NCC(=O)N1CCC[C@H]1C(=O)N[C@@H](CO)C(=O)N[C@@H](CO)C(=O)NCC(=O)N[C@@H](C)C(=O)N1CCC[C@H]1C(=O)N1CCC[C@H]1C(=O)N1CCC[C@H]1C(=O)N[C@@H](CO)C(N)=O, also called GG-709) [Example 288] | 1.6 nM | 345 nM | 0.058 nM
F[Aib]EGTFTSDYSILLDKK([AEEA-AEEA-γGlu-C20 diacid])AQ[Aib]AFIEYLIEGGPSSGAPPPS-NH2 [Example 326] | 2.92 nM | 207 nM | 0.251 nM
Y[Aib]EGTFTSDYSILLDKK([AEEA-AEEA-γGlu-C18 diacid])AQQAFIEYLIEGG-NH2 (N-terminus assumed; SMILES CC[C@H](C)[C@H](NC(=O)[C@H](CC(C)C)NC(=O)[C@H](Cc1ccc(O)cc1)NC(=O)[C@H](CCC(=O)O)NC(=O)[C@@H](NC(=O)[C@H](Cc1ccccc1)NC(=O)[C@H](C)NC(=O)[C@H](CCC(N)=O)NC(=O)[C@H](CCC(N)=O)NC(=O)[C@H](C)NC(=O)[C@H](CCCCNC(=O)COCCOCCNC(=O)COCCOCCNC(=O)CC[C@H](NC(=O)CCCCCCCCCCCCCCCCC(=O)O)C(=O)O)NC(=O)[C@H](CCCCN)NC(=O)[C@H](CC(=O)O)NC(=O)[C@H](CC(C)C)NC(=O)[C@H](CC(C)C)NC(=O)[C@@H](NC(=O)[C@H](CO)NC(=O)[C@H](Cc1ccc(O)cc1)NC(=O)[C@H](CC(=O)O)NC(=O)[C@H](CO)NC(=O)[C@@H](NC(=O)[C@H](Cc1ccccc1)NC(=O)[C@@H](NC(=O)CNC(=O)[C@H](CCC(=O)O)NC(=O)C(C)(C)NC(=O)[C@@H](N)Cc1ccc(O)cc1)[C@@H](C)O)[C@@H](C)O)[C@@H](C)CC)[C@@H](C)CC)C(=O)N[C@@H](CCC(=O)O)C(=O)NCC(=O)NCC(N)=O) [Example 294] | 2.92 nM | 629 nM | 0.205 nM
